Test results from the DeepSol protein solubility set.

Assay: soluble on expression in E. coli; label from the status in PepcDB or PDB records

Soluble on expression in E. coli, not soluble:
MGSDKIHHHHHHMFMPEAVNWNRPIKVGVSSCLLGEKVRYDGGHKHDHYITDVLGKFFTFVPVCPEVGCGMPVPREAMRLEGDPEHPRLVTNKTRIDKTEQMRAFCKQKVTELADEELCGFIFKKDSPSSGLFRVKVHNEGMPTRSGSGLFAAAVVKHFPLLPAEEEGRLNDAAIRENFIERIFCYRRWKDFLLDSPDLGHLVTFHARHKLLILAHSTSIYREMGSLVAHGKGMSWPELAQSYEALFMKALALHATVKKNTNVLTHIMGYFKRDLSPAEKEELLGVIKEYHDRLVPLIVPLTLLKHYVGKYGQSYLQQQYYLSPHPAELMLRNHV, MGSDKIHHHHHHMFRTNPLKIIMLGPSLLQQGGISGYEKLFLEYAPSEIHICHIITHEEGTIAFKIMVFLKAIWKFIWMLISEEIDIVQLEISQRGSVFRQSIMILLAWVFHKPIILHAHGSQFHIFYAGLANWIQKLLSWIFCKCQRLIVLSESWKSFYIDTLGLKSEQVVVFYNPVKVPTEVPSRSFSTKLNLLFLGRIGQRKGAFDLIKAFSSLPTEYQTRSIMVMAGDGDIEKARDLVTTLNLQDYIQLPGWIGSDERDILLSKADIFVLPSYNEGLPLAMLEAMAWELPVIVTPVGGIPEIVTQSENGLIVNPGNVEQLSNAIKSLIENEALRLSLGAKARTSVFPLDIKKHWVDFIDLYNLVLNTMEEHSKG, MGSDKIHHHHHHMGCGVTVANASVYALPVRGNIVGALEAVTTHRDDTLLDIGRFYDLGYNQVTAANPGVNPWLPGQASKVVIPAEYILPPKPWTGIIVDIPARRIYYFPVNDRVVYTYPVGVFLPGWKEALTDTRIIAKFKMPAWNVPKNIHAWFEKKFHMDIPWYWPPGPENPMGELAMETGLSGIFIHGTYHPWGVGMRASQGCFQMFPENVAQLFPMVPVGTPVRIIDQPNLVGVRDGQVYLQSYKPMHAYHKKGIPELQRAVVTIKSFMERNRIEERIDWGMVRRIVTEHNTVALPIGVGAPSYATLSAALPATPYAYAPYGPSANGAAVPPPLPLASAADQEHLHVQVTFPDQKP, MGSDKIHHHHHHMGEEIAISLKNVSKCFKRYSRPVDRLKEVLLPGKSRTDEFWALRDINIEIPKGQTVGIVGRNGSGKSTLLQIIVGTLTPSSGDVRVVGRVSALLELGSGFNPEFTGRQNVFFNGQLLGLSQKQIEDRFDDIVAFADIGDFIEQPVKTYSSGMYVRLAFSVAVNVDPEILIVDEALAVGDVVFQHRCMRRMRAMMDSGVTTLFVSHDSGAIKTLCNSAVMIHDGKIHTTGLPNTVIIEYLKLVTELELGLAQDITVNSQQQVNPVVDNAIQASDSPNFDIESPSSNFSKATRRGSGKARIESVKILNQLGHYAGESPIFAFNEEVTLIVNLKVYYTIKSCIVGFHVCDKNGNEVIGSNTLEENIKIDKLESGEEIEIKFKFNLPLRPSSYSLTVAGAESYESLSFDWIDNIMVFQILPPDTGKLIHALVHQPMVVKVNKKVLPTVVTPA, MGSDKIHHHHHHMGFWHSMSWKTEGIRVTAPVQWRQYDGMVSVLWEAESQAGASGYYLADDPRIMFFFNDVSSSVRISNQDNDLARNSRPMARAVYVPAGVPLWTGSRKTHSFSHLNLHLHKDRVLRFLAPSVGNSAAQTALRCPVELQNVAAIDALAKLLADEIKSPTKHAVYAESLIGSIIAGLLDIPTEREERAGGRLTQAQINKLVSHIDALGDYRMSVADMAAVVGLSESWFASVFKQTMGITPLQWQLAKRVELTKKLLGESDLPVASIAAQLGFADQAHLTKVFRQIVGETPAAWRRMRQFRQS, MGSDKIHHHHHHMGIDIKHEESSLVGLLTYIGRLKDEQFDYVIDLHNVIRSKIIRFYLRFFGVKGFSLKKPRLQLRQLTAKPPKKPTRLPSVIERYAQVFHKAGLEIHPPYPILLNDSGHISTELPIVEIGSGHHLIGIAPFAGHEAKTYPPEKMHEVVRTLAERDDVQIFLFGGKGKEKNILEQWADESPRIVSVAGLLSLPEELSLIHALRCMVSMDSANMHFASLVGTRVISIWCATHPAAGFLGYGQRIEDCIGADLDCRPCSVFGNKPCFRKDYACRTQIEPQLIINKIVSTLTDLNSDETEN, MGSDKIHHHHHHMGKFLKKHYIMAPGPTPVPNDILTEGAKETIHHRTPQFVSIMEETLESAKYIFQTKHNVYAFASTGTGAMEAAVANLVSPGDKVIVVVAGKFGERWRELCQAYGADIVEIALEWGDAVTPEQIEEALNKNPDAKVVFTTYSETSTGTVIDLEGIARVTKEKDVVLVTDAVSALGAEPLKMDEWGVDLVVTGSQKGLMLPPGLALISLNDKAWGLVEKSRSPRYYFDLRAYRKSYPDNPYTPAVNMIYMLRKALQMIKEEGIENVWERHRILGDATRAAVKALGLELLSKRPGNVVTAVKVPEGIDGKQIPKIMRDKYGVTIAGGQAKLKGKIFRIAHLGYMSPFDTITAISALELTLKELGYEFELGVGVKAAEAVFAKEFIGE, MGSDKIHHHHHHMGKKNYGKSVKTRLLNLMNETGYKYMYLLARYFNERLLYRVSVSQYKDNFLLKGGSLLYAMNGLEARPTVDVDFMADRISRDRDFLARVFQEILGIVCDEDGVSFDAGSIKIEPITVEKKYPGTRFYFTAHMDTIAYNMSVDIGFGDVVIPHPTTIDFPLLLPDIPSVNIQAYSLETVIAEKFHTMIDRDVLNSRMKDFFDCYQLLTKRNLNDDALYDAIEATFDNRGLAYNPDLQLFTDSFATDRARISRWKAFLRKIQWKEALDFDTVMKAIRDRLQPMAEKYWIKLSK, MGSDKIHHHHHHMGKSFYRFRSTNNLLDGYSELEKQTIYFARPEQLNDPMEGYRDIYWRGDLIAWKNLFAHYVFCLERISSLLLISGEDNKIDADHIPVFGSTDDLPTDSYKNLFRKIKARFLENKYVSALILAISKRSTPIRREELAFYYDCMHIPALKLIFDVYIEENLSQEGNRIDDKAFAGISGVVSNDFVGLLEKSITDGEADQVIVNELFKAKSHIKQQSNLIHKHNGTISSSKPNKNLLMIDFPSLYLNRLEEITFPKWYTSCFMSECKNSSVWGHYGNNHTGMCLIFDSENINDRSYIKLNGITGWGSSGPIYGDKAMEFHPIDYKKGFGEIDFFTSIGSLPIPVLNTMWYMDEAGNTSVCANKMNVDEDAWRSNYWSNFIRGLTVKSKDWEYENEYRLILHSSITDLSEKDRRTLTYDFSSLKGIIFGINTKEEDKLKTIKIIEDKCNKHSRSDFKFYQAYYCADENCIKSVEMSLVKFSGNV, MGSDKIHHHHHHMGKVADTLKPGDRVLLSFEDESEFLVDLEKDKKLHTHLGIIDLNEVFEKGPGEIIRTSAGKKGYILIPSLIDEIMNMKRRTQIVYPKDSSFIAMMLDVKEGDRIIDTGVGSGAMCAVLARAVGSSGKVFAYEKREEFAKLAESNLTKWGLIERVTIKVRDISEGFDEKDVDALFLDVPDPWNYIDKCWEALKGGGRFATVCPTTNQVQETLKKLQELPFIRIEVWESLFRPYKPVPERLRPVDRMVAHTAYMIFATKVCRREETE, MGSDKIHHHHHHMGKVNYAAIDIGSNAVRLLIKSIDREAVQEKKIKKVMMLRVPLRLGFDVFSIGELSEKKADKLRRLMKAFRQLMKIYDVDDYRACATSAMRDARNGRTIIKKIEKDTGIRIEIIDGQEEARMIYNNHIECMEDRLGNYMYVDVGGGSTEINLLTNGELVWSVSYNIGTVRMLSNAVKEGTWQQMEEELMKVTEGVAAINIIGSGGNINKLFRLADKKDKKLQRLPVSSLQTVYDVLKPLTPEERVEAFSLKQDRADVIVPAAEIFLKIAEVVHAEYIYVPVIGLSDGIIDNLYAKSLEKEMKVE, MGSDKIHHHHHHMGQGTDSMSKRGRVYIIGAGPGDPGLMTVKGTKCLAEADVVIYDHLINPGILHHARETARLVYAGKEGGKHTLSQEEINARLVSEAQQGHVVARLKGGDPFIFGRGGEEAEVLAREGIPFEIVPGVTSAIAVASYAGIPLTHRRHTATLAFVTGHEDPLKGQSEIDWKALAGIGTLVFLMGVRNLSRIAAGLIAQGKKPETPAALIRWGTTANQETLVGTLENIADLAEAAGFAPPAILVVGGVVGLRKELNWFETRPLFGKGIVITRPESQAESLAALLEDAGARVISFPTIQIVAPESWEGLDSAIRRLEDYAWLIFTSANGVRFFLERLYVTGKDVRDLKGIRLCTIGPATAAALENRGLRVDLVPETYLSEGVVAAFERVAISGQRILLPRAEKARDVIPEGLTRQGAVVDVVSAYRTVNSGRDRSELVELIAQRRVDVLTFTSPSTVTNFLEIMGPDFLPLPAGIRVACIGPVTAAAAEKAGLPVDILQEIYTIPGLVESLKVFLAKDKPH
